According to patent US20080058270A1 (published 2008):

Target: T1, lecithin:cholesterol acyltransferase (LCAT), purified from human plasma (human, UniProt P04180 25-440)
T1 sequence (looked up): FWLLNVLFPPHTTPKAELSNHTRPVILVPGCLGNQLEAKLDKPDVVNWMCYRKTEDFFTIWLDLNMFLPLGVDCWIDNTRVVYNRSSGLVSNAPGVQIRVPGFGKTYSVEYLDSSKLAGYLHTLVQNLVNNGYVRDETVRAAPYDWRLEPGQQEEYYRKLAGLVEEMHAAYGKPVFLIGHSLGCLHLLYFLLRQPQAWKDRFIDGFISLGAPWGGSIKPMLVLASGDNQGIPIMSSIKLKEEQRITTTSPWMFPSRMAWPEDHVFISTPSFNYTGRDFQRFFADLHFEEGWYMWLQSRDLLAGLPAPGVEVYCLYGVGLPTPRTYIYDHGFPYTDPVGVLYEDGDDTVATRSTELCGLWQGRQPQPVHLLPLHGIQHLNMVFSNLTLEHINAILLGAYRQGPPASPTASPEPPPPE
Assay: cell-based or functional assay

ACTIVITY (%) LCAT: 111%
Binder: LDDLLQKWAEAFNQLLKK [peptide 237]
